Laboratory results published in article PMC9905591, “A single point mutation expands the applicability of ostreolysin A6 in biomedicine” (Scientific Reports, 2023).

Target: T1, OlyA6 mutant E69A (Pleurotus ostreatus, UniProt P83467 1-138, E69A)
T1 sequence: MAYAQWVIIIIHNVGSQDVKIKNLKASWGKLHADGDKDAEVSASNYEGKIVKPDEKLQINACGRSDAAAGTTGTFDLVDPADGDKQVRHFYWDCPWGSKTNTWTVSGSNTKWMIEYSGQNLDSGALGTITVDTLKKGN
Assay: cell-based or functional assay

B1: Δ48PlyB (pleurotolysin B) (domain or fragment, Pleurotus ostreatus, UniProt Q5W9E8 49-523, looked up)
chain: SQAGDTLNDVIQDPTRRNKLINDNNLLKGIIMGRDGPVPSSRELIVRPDTLRAIINNRATIETTTMEAEFTETLMESNYNSASVKVSAPFITANSEYSESSSFKNTETEKSMYTSSRYLFPQGRIDFTTPDSGFDDVIKLSPQFTSGVQAALAKATGTEKREALQNLFQEYGHVFRTKVHIGGVLSAHTMETFSRSENETEVKQDVKAGLEGAVKGWGGGATAGHGNTQGTITTSQNRKLNVKYIVNGGDYTKIQNTEEWVASTNQSEHWRVIEVTEVTAVADLLPQPIRGQVKDLLKPLLGKWVDVEKVPGLESLPVSVYRPKGAIPAGWFWLGDTADASKALLVKPTLPARSGRNPALTSLHQGSGMTEQPFVDLPQYQYLSTYFGSFAHDTPPGSTLRGLRPDHVLPGRYEMHGDTISTAVYVTRPVDVPFPEDECFDLKSLVRVKLPGSGNPPKPRSALKKSMVLFDSGEK
Q: Which “hazard ratio against buffer, Kaplan-Meier survival of Colorado potato beetle larvae on E69A/PlyB-treated leaf discs” value does the source give for B1 here?
A: The value was 2.76.
